In PMC9464187 (2022) one finds Kd, other: t1/2 and t1/2 data, which are given here for four molecules.

The target in assay [1] is HLA-A*11:01 presenting the KRAS G12D decamer peptide …. The assay is described as follows: SPR; biotinylated pHLA (400-500 RU) immobilised on a streptavidin-coated CM5 chip, Biacore T200; multi cycle steady state analysis, ten 2-fold dilutions of TCR starting at 50 µM; one site fit. (In SPR one partner is held on a chip, and binding of the other changes the refractive index at the surface.)

For assay [2], the target named is HLA-A*11:01 presenting the KRAS^G12D decamer peptide … (human | not stated). The assay is described as follows: SPR; biotinylated pHLA (400-500 RU) immobilised on a streptavidin-coated CM5 sensor chip, Biacore T200; multi cycle steady state analysis, 10-point titration of JDI TCR from 50 µM to 0.1 µM; one site total least squares fit.
Assay [3] concerns the target HLA-A*11:01 presenting the KRAS^G12D decamer peptide …. The assay is described as follows: SPR.
Assay [4] has as its target T1, KRAS WT peptide on HLA-A*11:01 (human).
T1 peptide: VVVGAGGVGK
The assay can be described thus: SPR; >4000-fold weaker than to KRAS G12D; soluble, with an engineered disulfide between the constant domains.

The target of assay [5] is T2, KRAS G12D peptide on HLA-A*11:01 (human).
T2 peptide: VVVGADGVGK
The assay is described as follows: SPR single cycle kinetics; soluble, with an engineered disulfide between the constant domains.

What is called Kd is the concentration at which binding is half-saturated. Read a high Kd as a looser complex. Turning to JDI TCR (parent TCR), the dissociation constant (Kd) in assay [1] was found to be 62.8 µM; in assay [2], 63 µM.

Turning to JDI TCR (parent TCR) JDIa9bwt, the other: t1/2 in assay [3] was 18 min.

JDI TCR (parent TCR) JDIa96b35 displayed an other: t1/2 in assay [3] of more than 1200 min.

B1: JDIa41b1 TCR (TCR)
alpha TRAV19*01 CDR3: AMSVPSGDGSYQFT
beta TRBV6-2*01 CDR3: ASKVGPGQHNSPLH
With B1, binding in assay [4] was characterised by a dissociation constant (Kd) of 3000 nM. Besides, the t1/2 in assay [5] was 1.2 h.
